According to patent US20050080234A1 (Takeda / Millennium, published 2005):
Like-named read-outs stand apart in the source and are kept apart here.

Key:
Assay in all cases: cell-based or functional assay
[1] = target: T1, wild-type mouse C140 receptor (mouse, UniProt P55086 32-399)
T1 sequence: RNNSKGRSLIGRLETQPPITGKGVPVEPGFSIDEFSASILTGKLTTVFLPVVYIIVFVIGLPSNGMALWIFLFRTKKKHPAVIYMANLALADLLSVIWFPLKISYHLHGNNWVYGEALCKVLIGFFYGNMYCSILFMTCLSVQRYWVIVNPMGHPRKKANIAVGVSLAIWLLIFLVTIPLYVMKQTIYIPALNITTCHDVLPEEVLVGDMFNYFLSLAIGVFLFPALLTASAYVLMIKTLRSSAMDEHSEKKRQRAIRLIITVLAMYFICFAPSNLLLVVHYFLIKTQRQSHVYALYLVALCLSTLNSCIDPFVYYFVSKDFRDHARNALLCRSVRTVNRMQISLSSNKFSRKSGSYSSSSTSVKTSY

[2] = target: T2, mouse C140 receptor mutant 35Arg (mouse, UniProt P55086 32-399)
T2 sequence: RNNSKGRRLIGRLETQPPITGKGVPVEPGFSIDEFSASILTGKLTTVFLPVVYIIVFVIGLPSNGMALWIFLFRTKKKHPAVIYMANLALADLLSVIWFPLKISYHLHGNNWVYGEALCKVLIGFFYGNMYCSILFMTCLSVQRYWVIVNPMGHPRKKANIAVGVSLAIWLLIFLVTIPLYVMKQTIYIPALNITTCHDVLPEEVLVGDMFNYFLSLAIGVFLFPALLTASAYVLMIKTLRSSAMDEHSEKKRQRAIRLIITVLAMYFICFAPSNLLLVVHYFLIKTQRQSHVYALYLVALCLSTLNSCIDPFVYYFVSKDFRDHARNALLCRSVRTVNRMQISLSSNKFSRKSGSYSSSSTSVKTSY

[3] = target: T3, mouse C140 receptor mutant 35His (mouse, UniProt P55086 32-399)
T3 sequence: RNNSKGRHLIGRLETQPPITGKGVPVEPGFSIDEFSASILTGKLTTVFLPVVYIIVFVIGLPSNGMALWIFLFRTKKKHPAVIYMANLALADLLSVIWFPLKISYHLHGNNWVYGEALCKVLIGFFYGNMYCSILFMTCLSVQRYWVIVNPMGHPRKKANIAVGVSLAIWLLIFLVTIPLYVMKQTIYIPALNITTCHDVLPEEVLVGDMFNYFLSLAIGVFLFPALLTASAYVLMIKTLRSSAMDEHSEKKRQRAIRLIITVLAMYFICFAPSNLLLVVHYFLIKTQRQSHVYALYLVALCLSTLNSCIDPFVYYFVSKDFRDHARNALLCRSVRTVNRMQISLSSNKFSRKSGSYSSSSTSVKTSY

[4] = target: T4, mouse C140 receptor mutant 35Pro (mouse, UniProt P55086 32-399)
T4 sequence: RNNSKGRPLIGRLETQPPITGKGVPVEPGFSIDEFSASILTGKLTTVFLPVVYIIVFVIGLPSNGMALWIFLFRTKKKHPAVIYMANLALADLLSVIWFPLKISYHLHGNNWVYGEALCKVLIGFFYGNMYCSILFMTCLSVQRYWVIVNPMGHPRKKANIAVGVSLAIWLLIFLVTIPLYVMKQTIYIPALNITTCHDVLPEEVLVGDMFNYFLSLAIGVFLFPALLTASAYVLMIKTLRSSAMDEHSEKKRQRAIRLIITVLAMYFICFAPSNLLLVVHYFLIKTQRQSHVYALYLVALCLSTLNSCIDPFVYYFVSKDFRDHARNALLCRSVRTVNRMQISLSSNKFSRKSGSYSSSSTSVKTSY

[5] = target: T1, wild-type mouse C140 receptor; remark: listed apart in the source
[6] = target: T1, wild-type mouse C140 receptor; remark: listed apart in the source

Molecule: trypsin (enzyme)
- Fold increase in 45Ca [1]: 6.6 fold
- Fold increase in 45Ca [2]: 0 fold
- Fold increase in 45Ca [3]: 0 fold
- Fold increase in 45Ca [4]: 0 fold

Molecule: ALIGRL [peptide ALIGRL]
- Fold Increase in 45Ca [5]: 1.3 fold

Molecule: SLIGAL [peptide SLIGAL]
- Fold Increase in 45Ca [5]: 0 fold

Molecule: SLAGRL [peptide SLAGRL]
- Fold Increase in 45Ca [5]: 0 fold

Molecule: SLIGRA [peptide SLIGRA]
- Fold Increase in 45Ca [5]: 8.5 fold

Molecule: SFFLRW [thrombin receptor agonist SFFLRW]
- Fold Increase in 45Ca [5]: 1.7 fold

Molecule: SLIGRL [agonist peptide SLIGRL]
- Fold Increase in 45Ca [5]: 15 fold
- Fold Increase in 45Ca [2]: 15 fold
- Fold Increase in 45Ca [6]: 11 fold
- Fold Increase in 45Ca [3]: 23 fold
- Fold Increase in 45Ca [4]: 23 fold

Molecule: SAIGRL [peptide SAIGRL]
- Fold Increase in 45Ca [5]: 0 fold

Molecule: SLIARL [peptide SLIARL]
- Fold Increase in 45Ca [5]: 4.3 fold
